According to PMC9670274 (ACS Omega, 2022):

B1: lactate dehydrogenase from Lactobacillus johnsonii (enzyme)
chain: MTTYYKGFPQSTREEKLHMVNLDELEHEAKYVMPEAAYYYVASGAENEWTWRNNTQAFNHFQIVPRALTGMQNPELNTEFLGMKLKTPVMICPIACHGIANAEAEIDTAKGAKAAGALFAMSTYANKSVQEVQSAVGDSPRFMQLYLSKNWDFNKMVIEESVKAGFTGFFLTVDALVSGYREANLRTNFTYPVPLAFFNEWNGGKGEGQSVAQMYASSAQNIGPDDIRKIKEIADVPVIVKGVECAEDAMLAIGTGADGIVVSNHGGREVDGAPATIDVLPEIAKAVRSCDHRVPIILDGGVRRGSHVFKALALGADLVGIGRPFLYGLALGGAQGVQSVIEQLNKELLIDMQLTGCKTIEDIKHAKIDHINYSADWGISSTSRSVMKPYPVTKENQLTGEAADAVSGASRH

Tests used:
[1] = target: lactate dehydrogenase from Lactobacillus helsingborgensis (Lactobacillus helsingborgensis); assay: SEC-MALS
SEC-MALS = target: the molecule itself; assay: SEC-MALS

| Molecule | stoichiometry N [1] | stoichiometry N (SEC-MALS) |
| --- | --- | --- |
| lactate dehydrogenase from Lactobacillus helsingborgensis (enzyme) | 8 | – |
| B1 | – | 8 |
